# Measurements as given in publication PMC5003418.
# Experiments:
# [1] = target: HIV-1 integrase K264A/K266A, recombinant, 6xHis-tagged (HIV-1); experiment: SEC
# [2] = target: HIV-1 integrase R269A/K273A, recombinant, 6xHis-tagged (HIV-1); experiment: SEC
Substance,stoichiometry N [1],stoichiometry N [2]
"HIV-1 integrase K264A/K266A, recombinant, 6xHis-tagged (enzyme)",4,–
"HIV-1 integrase R269A/K273A, recombinant, 6xHis-tagged (enzyme)",–,4
